The record followed here is patent publication US20160053025A1 (SAMSUNG ELECTRONICS, published 2016).

One assay has as its target T1, BSA (Bos taurus, UniProt P02769).
T1 construct: commercial preparation; also called Bovine serum albumin; Sigma
The assay can be described thus: Complex ELISA: plate coated with BSA, FLAG-Ang2 0.25 ug/ml shown by 10D6 2 ug/ml and anti-mouse IgG-HRP, OD450. The protocol: (§1) A 96-well MaxiSorp™ flat-bottom plate (Nunc) was coated with 4 μg/ml of Tie2-Fc (R&D systems) or BSA (Sigma). Then, the plate was washed five times with 0.05% (v/v) Tween-20-containing PBS (Phosphate Buffer Saline) and blocked with 1% (v/v) BSA (Bovine serum albumin; Sigma)-containing PBS at a room temperature for 2 hours. 0.25 μg/ml of Ang2 and 2 μg/ml of 10D6 antibody were added to each well of the plate, which was allowed to react at a room temperature for 2 hours and then washed five times with PBST. After that, an anti-mouse IgG antibody (Sigma) conjugated with HRP diluted in 1% (v/v) BSA-containing PBS at a ratio of 1:5,000 (v/v) was added in an amount of 100 ul to each well to react at a room temperature for 1 hour and then, the plate was washed five times with PBST. Lastly, 100 ul (microliter) of TMB substrate (Cell Signaling) was added to each well of the plate to induce color development for 3 min. and then, the reaction was ceased by the addition of 100 ul of Stop solution (Cell Signaling) and OD450 values were measured on a plate reader (Molecular Devices).

A further assay has as its target T2, hTie2-Fc (R&D Systems) (human, UniProt Q02763 23-745).
T2 construct: Bought fusion protein; also called hTie-2/Fc fusion protein; not shown: Fc of human IgG1
Briefly: ELISA, Tie2-Fc coated, Ang2 and 10D6 added, detected with anti-mouse IgG-HRP. The protocol: as §1
On the technique in general: In an ELISA, binding on a coated surface is turned into a signal by an enzyme label.

The target in assay [1] is T3, c-Met-Fc (#358-MT/CF, R&D Systems) (human, UniProt P08581 25-932).
T3 construct: also called human c-Met/Fc fusion protein (R&D Systems); human c-Met/Fc protein; not shown: Fc part
T3 sequence (P08581 25-932 limits assumed): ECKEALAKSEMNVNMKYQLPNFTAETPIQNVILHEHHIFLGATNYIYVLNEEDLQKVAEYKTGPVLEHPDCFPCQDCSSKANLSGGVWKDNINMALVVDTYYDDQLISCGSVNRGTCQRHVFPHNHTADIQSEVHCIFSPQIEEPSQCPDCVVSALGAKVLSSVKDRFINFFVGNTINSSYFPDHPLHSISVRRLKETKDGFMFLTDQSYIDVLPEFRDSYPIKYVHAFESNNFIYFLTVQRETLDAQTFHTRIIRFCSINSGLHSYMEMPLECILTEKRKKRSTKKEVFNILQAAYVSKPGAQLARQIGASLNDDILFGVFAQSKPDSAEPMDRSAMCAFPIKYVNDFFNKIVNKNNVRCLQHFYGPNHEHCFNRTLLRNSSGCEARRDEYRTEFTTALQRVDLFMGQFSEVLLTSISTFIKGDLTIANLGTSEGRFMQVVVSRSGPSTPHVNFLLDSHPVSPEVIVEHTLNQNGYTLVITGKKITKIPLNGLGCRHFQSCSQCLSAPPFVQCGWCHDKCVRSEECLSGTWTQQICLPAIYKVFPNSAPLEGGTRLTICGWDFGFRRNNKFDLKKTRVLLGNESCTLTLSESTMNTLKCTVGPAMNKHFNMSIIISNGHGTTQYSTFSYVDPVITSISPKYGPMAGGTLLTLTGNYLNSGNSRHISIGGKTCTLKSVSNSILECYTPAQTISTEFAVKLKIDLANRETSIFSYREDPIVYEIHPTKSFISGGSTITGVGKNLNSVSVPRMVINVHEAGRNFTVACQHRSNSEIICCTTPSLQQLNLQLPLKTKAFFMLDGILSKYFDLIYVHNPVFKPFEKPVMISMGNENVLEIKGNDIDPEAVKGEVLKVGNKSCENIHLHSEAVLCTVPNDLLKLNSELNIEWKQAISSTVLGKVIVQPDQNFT
Briefly: SPR, Biacore T100; bispecific antibody captured by human Fab binder on CM5, c-Met-Fc as analyte. The protocol:
The binding affinity of the anti-c-Met/anti-Ang2 bispecific antibody prepared in Example 1 to c-Met was measured using Biacore T100(GE). For this, a human Fab binder (#28-9583-25, GE Healthcare) was fixed on the surface of CM5 chip (#BR-1005-30, GE) according to manufacturer's manual. About 90˜120 RU of the anti-c-Met/anti-Ang2 bispecific antibody was captured and then, c-Met-Fc (#358-MT/CF, R&D Systems) was added to the captured antibody at various concentrations. Hereto, 10 mM Glycine-HCl (pH 1.5) solution was added, to regenerate the surface. To measure the affinity, the above obtained data were fitted using BIAevaluation software (GE Healthcare, Biacore T100 evaluation software).
A general note: In SPR one partner is held on a chip, and binding of the other changes the refractive index at the surface.

Assay [2] addresses T4, recombinant hAng-2 (C-His, R&D Systems) (human, UniProt O15123 19-496).
T4 construct: Bought protein; also called human Ang-2 protein; C-terminal histidine-tagged human Ang2 (R&D Systems); not shown: C-terminal His tag
T4 sequence: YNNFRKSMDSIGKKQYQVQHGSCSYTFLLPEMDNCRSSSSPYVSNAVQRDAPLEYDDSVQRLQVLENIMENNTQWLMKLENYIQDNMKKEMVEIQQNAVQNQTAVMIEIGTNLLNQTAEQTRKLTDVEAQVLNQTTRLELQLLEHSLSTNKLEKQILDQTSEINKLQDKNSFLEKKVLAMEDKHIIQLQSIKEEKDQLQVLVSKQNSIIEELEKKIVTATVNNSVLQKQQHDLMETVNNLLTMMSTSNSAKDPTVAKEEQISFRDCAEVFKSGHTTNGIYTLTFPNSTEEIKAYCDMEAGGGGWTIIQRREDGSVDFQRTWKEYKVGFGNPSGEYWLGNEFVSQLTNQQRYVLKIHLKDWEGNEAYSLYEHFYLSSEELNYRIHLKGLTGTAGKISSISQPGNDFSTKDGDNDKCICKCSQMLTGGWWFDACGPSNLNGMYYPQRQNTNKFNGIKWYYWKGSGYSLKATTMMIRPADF
The assay can be described thus: SPR, Biacore T100; C-terminal His-tagged human Ang2 captured by anti-histidine antibody on CM5, MA01 as analyte. The protocol: The binding affinity of the anti-c-Met/anti-Ang2 bispecific antibody prepared in Example 1 to Ang2 was measured using Biacore T100(GE). For this, an anti-histidine antibody (R&D Systems) was fixed on the surface of CM5 chip (#BR-1005-30, GE) according to manufacturer's manual. C-terminal histidine-tagged human Ang2 (R&D Systems) was captured and then, anti-c-Met/anti-Ang2 bispecific antibody MA01 was added to the captured antigen (Ang2) at various concentrations. Hereto, 10 mM Glycine-HCl (pH 1.5) solution was added, to regenerate the surface. To measure the affinity, the above obtained data were fitted using BIAevaluation software (GE Healthcare, Biacore T100 evaluation software).

T1 sequence (P02769 25-607 limits assumed): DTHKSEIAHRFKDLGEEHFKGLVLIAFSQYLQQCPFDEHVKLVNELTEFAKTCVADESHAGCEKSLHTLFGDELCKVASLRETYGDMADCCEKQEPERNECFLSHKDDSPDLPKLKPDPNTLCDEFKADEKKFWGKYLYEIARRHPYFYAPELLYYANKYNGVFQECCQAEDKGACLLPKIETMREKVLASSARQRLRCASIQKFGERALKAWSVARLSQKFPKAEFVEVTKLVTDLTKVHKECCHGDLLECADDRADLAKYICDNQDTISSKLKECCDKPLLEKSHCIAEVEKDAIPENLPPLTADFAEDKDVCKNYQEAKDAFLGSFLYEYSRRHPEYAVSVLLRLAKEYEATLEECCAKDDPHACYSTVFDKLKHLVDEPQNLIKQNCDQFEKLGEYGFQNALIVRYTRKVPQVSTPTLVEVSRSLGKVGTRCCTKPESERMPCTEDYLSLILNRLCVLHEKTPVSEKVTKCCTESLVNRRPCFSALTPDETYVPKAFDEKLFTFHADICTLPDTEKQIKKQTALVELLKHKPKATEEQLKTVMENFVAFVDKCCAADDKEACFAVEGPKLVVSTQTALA
T2 sequence (Q02763 23-745 limits assumed): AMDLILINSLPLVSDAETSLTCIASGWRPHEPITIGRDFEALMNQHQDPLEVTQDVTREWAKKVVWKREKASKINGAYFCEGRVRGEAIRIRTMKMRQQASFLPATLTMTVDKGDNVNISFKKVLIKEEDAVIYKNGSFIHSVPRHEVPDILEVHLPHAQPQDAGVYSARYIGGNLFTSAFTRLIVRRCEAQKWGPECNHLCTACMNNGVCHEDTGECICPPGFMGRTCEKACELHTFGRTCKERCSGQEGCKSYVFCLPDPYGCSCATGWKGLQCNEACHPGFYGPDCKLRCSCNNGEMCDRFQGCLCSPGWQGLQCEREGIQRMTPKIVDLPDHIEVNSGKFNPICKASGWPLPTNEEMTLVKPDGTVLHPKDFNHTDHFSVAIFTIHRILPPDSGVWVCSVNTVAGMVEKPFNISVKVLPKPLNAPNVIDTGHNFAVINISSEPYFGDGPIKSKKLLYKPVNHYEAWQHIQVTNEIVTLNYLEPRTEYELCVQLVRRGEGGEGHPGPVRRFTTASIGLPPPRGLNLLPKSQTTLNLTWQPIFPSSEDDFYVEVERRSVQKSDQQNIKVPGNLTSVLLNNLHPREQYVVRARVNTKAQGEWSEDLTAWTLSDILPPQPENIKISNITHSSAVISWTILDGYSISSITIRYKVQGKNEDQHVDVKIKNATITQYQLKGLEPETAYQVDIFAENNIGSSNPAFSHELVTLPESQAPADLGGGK

B1: FLAG-tagged hAng-2 (ligand)
chain: YNNFRKSMDSIGKKQYQVQHGSCSYTFLLPEMDNCRSSSSPYVSNAVQRDAPLEYDDSVQRLQVLENIMENNTQWLMKLENYIQDNMKKEMVEIQQNAVQNQTAVMIEIGTNLLNQTAEQTRKLTDVEAQVLNQTTRLELQLLEHSLSTNKLEKQILDQTSEINKLQDKNSFLEKKVLAMEDKHIIQLQSIKEEKDQLQVLVSKQNSIIEELEKKIVTATVNNSVLQKQQHDLMETVNNLLTMMSTSNSAKDPTVAKEEQISFRDCAEVFKSGHTTNGIYTLTFPNSTEEIKAYCDMEAGGGGWTIIQRREDGSVDFQRTWKEYKVGFGNPSGEYWLGNEFVSQLTNQQRYVLKIHLKDWEGNEAYSLYEHFYLSSEELNYRIHLKGLTGTAGKISSISQPGNDFSTKDGDNDKCICKCSQMLTGGWWFDACGPSNLNGMYYPQRQNTNKFNGIKWYYWKGSGYSLKATTMMIRPADF
notes: not shown: FLAG tag
B1: the binding result with BSA is “no binding (tested: 0.25 ug/ml)”.

B2: Ang2 protein (R&D systems) (ligand)
chain: YNNFRKSMDSIGKKQYQVQHGSCSYTFLLPEMDNCRSSSSPYVSNAVQRDAPLEYDDSVQRLQVLENIMENNTQWLMKLENYIQDNMKKEMVEIQQNAVQNQTAVMIEIGTNLLNQTAEQTRKLTDVEAQVLNQTTRLELQLLEHSLSTNKLEKQILDQTSEINKLQDKNSFLEKKVLAMEDKHIIQLQSIKEEKDQLQVLVSKQNSIIEELEKKIVTATVNNSVLQKQQHDLMETVNNLLTMMSTSNSAKDPTVAKEEQISFRDCAEVFKSGHTTNGIYTLTFPNSTEEIKAYCDMEAGGGGWTIIQRREDGSVDFQRTWKEYKVGFGNPSGEYWLGNEFVSQLTNQQRYVLKIHLKDWEGNEAYSLYEHFYLSSEELNYRIHLKGLTGTAGKISSISQPGNDFSTKDGDNDKCICKCSQMLTGGWWFDACGPSNLNGMYYPQRQNTNKFNGIKWYYWKGSGYSLKATTMMIRPADF
notes: Ang2 as used in the hybridoma screen, the HUVEC assays and the complex ELISA; also called human Ang2 protein; Human Ang-2 protein
For B2, the binding result in the assay with hTie2-Fc (R&D Systems) was “binds”.

B3: anti-c-Met/anti-Ang2 bispecific antibody MA01 (bispecific antibody, human IgG2, kappa)
heavy: EVQLVESGGGLVQPGGSLRLSCAASGFTFTDYYMSWVRQAPGKGLEWLGFIRNKANGYTTEYSASVKGRFTISRDNSKNTLYLQMNSLRAEDTAVYYCARDNWFAYWGQGTLVTVSSASTKGPSVFPLAPCSRSTSESTAALGCLVKDYFPEPVTVSWNSGALTSGVHTFPAVLQSSGLYSLSSVVTVPSSNFGTQTYTCNVDHKPSNTKVDKTVERKCCVECPPCPAPPVAGPSVFLFPPKPKDTLMISRTPEVTCVVVDVSHEDPEVQFNWYVDGVEVHNAKTKPREEQFNSTFRVVSVLTVVHQDWLNGKEYKCKVSNKGLPAPIEKTISKTKGQPREPQVYTLPPSREEMTKNQVSLTCLVKGFYPSDIAVEWESNGQPENNYKTTPPMLDSDGSFFLYSKLTVDKSRWQQGNVFSCSVMHEALHNHYTQKSLSLSPGKGGGGSGGGGSQVQLQESGPGLVKPSETLSLTCAVSGYSITSDYAWNWIRQPPGKGLEWMGKISYSGKTDYNPSLKSRSTISRDTSKNQFSLKLSSVTAADTAVYYCARGNFEGAMDYWGQGTLVTVSSGGGGSGGGGSGGGGSDIQMTQSPSSLSASVGDRVTITCKASQSVSNDVAWYQQKPGKAPKLLIYYASNRYPGVPSRFSGSGSGTDFTLTISSLQPEDFATYYCQQDYSSPWTFGGGTKLEIK
light: DIQMTQSPSSLSASVGDRVTITCKSSQSLLASGNQNNYLAWYQQKPGKAPKMLIIWASTRVSGVPSRFSGSGSGTDFTLTISSLQPEDFATYYCQQSYSRPYTFGQGTKVEIKRTVAAPSVFIFPPSDEQLKSGTASVVCLLNNFYPREAKVQWKVDNALQSGNSQESVTEQDSKDSTYSLSSTLTLSKADYEKHKVYACEVTHQGLSSPVTKSFNRGEC
By Kd is commonly meant the concentration at which binding is half-saturated. Broadly, the koff is the first-order rate constant of dissociation. One may read the kon as the rate constant with which the complex forms. B3 returned a Kd in assay [1] of 0.07 nM. Also, in assay [2], the equilibrium dissociation constant (Kd) amounted to 71.6 nM, the dissociation rate constant (koff) is 0.00648 s⁻¹ and the on-rate constant (kon) came to 90500 M⁻¹ s⁻¹.
